Source: paper PMC5534435, “The Amyloid Precursor Protein Is a Conserved Receptor for Slit to Mediate Axon Guidance” (eNeuro, 2017)

Target: T1, Rat Robo1 tagged with the hemagglutinin (Robo1-HA) (rat, UniProt O55005 26-1651)
T1 construct: Roundabout homolog 1 (Robo1), rat; The sentence with the Kd calls it Robo2, the methods name only rat Robo1-HA; also called Robo-HA; HA-Robo; source: HEK293, transfected
Assay: binding of alkaline phosphatase-tagged ligand to transfected cells; HEK293 cells transfected with FL APP or HA-Robo incubated with serial dilutions of supernatants with AP-tagged Slit2 and 1 μg/ml heparin, 2 h at 37°C; AP activity in cell lysates; Hill equation, Scatchard plot
Conditions: partners not purified

T1 sequence (O55005 26-1651): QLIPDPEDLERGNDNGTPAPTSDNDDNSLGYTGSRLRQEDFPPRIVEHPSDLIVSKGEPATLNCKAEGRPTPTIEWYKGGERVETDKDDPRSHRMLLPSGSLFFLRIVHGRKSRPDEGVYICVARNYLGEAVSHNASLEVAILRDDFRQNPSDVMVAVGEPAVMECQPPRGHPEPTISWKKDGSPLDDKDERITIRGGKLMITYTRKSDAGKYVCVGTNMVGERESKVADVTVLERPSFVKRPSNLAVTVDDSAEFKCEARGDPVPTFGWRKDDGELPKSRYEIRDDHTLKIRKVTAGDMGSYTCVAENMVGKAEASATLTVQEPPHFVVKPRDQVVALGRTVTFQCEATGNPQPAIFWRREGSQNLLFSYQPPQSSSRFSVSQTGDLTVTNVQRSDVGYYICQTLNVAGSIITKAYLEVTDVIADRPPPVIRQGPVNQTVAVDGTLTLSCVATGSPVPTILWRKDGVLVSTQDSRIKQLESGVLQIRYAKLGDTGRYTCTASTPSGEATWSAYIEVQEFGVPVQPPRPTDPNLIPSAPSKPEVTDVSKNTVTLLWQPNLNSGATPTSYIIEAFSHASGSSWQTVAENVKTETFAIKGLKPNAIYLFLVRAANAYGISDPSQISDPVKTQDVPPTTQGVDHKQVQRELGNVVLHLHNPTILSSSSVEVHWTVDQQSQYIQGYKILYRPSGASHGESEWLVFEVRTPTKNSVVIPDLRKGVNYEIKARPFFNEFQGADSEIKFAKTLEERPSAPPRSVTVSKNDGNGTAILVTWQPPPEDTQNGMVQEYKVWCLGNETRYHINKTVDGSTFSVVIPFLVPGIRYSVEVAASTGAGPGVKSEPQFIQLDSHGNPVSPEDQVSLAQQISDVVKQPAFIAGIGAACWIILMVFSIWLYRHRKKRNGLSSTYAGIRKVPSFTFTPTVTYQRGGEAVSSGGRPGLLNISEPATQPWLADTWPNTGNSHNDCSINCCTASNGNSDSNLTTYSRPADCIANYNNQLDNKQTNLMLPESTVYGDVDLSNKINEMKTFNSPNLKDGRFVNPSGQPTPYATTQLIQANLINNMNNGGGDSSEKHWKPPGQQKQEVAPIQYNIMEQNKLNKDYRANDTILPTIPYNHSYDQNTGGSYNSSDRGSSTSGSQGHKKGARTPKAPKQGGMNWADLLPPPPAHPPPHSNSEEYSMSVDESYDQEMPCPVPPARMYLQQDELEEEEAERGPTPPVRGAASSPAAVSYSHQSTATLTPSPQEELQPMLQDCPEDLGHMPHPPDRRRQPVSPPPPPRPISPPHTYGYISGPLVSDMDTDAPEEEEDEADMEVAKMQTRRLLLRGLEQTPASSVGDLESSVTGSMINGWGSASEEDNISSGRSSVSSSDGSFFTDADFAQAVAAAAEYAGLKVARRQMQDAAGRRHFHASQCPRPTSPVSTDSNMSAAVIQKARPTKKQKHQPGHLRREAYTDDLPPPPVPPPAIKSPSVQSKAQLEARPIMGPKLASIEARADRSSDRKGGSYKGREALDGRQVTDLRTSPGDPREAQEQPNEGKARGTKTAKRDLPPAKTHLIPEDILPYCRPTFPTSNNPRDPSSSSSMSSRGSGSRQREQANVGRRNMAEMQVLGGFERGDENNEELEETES

B1: FL Slit2 fused N terminally to the human alkaline phosphatase sequence (ligand, UniProt O94813 31-1529, looked up)
chain: QCSCSGSTVDCHGLALRSVPRNIPRNTERLDLNGNNITRITKTDFAGLRHLRVLQLMENKISTIERGAFQDLKELERLRLNRNHLQLFPELLFLGTAKLYRLDLSENQIQAIPRKAFRGAVDIKNLQLDYNQISCIEDGAFRALRDLEVLTLNNNNITRLSVASFNHMPKLRTFRLHSNNLYCDCHLAWLSDWLRQRPRVGLYTQCMGPSHLRGHNVAEVQKREFVCSGHQSFMAPSCSVLHCPAACTCSNNIVDCRGKGLTEIPTNLPETITEIRLEQNTIKVIPPGAFSPYKKLRRIDLSNNQISELAPDAFQGLRSLNSLVLYGNKITELPKSLFEGLFSLQLLLLNANKINCLRVDAFQDLHNLNLLSLYDNKLQTIAKGTFSPLRAIQTMHLAQNPFICDCHLKWLADYLHTNPIETSGARCTSPRRLANKRIGQIKSKKFRCSAKEQYFIPGTEDYRSKLSGDCFADLACPEKCRCEGTTVDCSNQKLNKIPEHIPQYTAELRLNNNEFTVLEATGIFKKLPQLRKINFSNNKITDIEEGAFEGASGVNEILLTSNRLENVQHKMFKGLESLKTLMLRSNRITCVGNDSFIGLSSVRLLSLYDNQITTVAPGAFDTLHSLSTLNLLANPFNCNCYLAWLGEWLRKKRIVTGNPRCQKPYFLKEIPIQDVAIQDFTCDDGNDDNSCSPLSRCPTECTCLDTVVRCSNKGLKVLPKGIPRDVTELYLDGNQFTLVPKELSNYKHLTLIDLSNNRISTLSNQSFSNMTQLLTLILSYNRLRCIPPRTFDGLKSLRLLSLHGNDISVVPEGAFNDLSALSHLAIGANPLYCDCNMQWLSDWVKSEYKEPGIARCAGPGEMADKLLLTTPSKKFTCQGPVDVNILAKCNPCLSNPCKNDGTCNSDPVDFYRCTCPYGFKGQDCDVPIHACISNPCKHGGTCHLKEGEEDGFWCICADGFEGENCEVNVDDCEDNDCENNSTCVDGINNYTCLCPPEYTGELCEEKLDFCAQDLNPCQHDSKCILTPKGFKCDCTPGYVGEHCDIDFDDCQDNKCKNGAHCTDAVNGYTCICPEGYSGLFCEFSPPMVLPRTSPCDNFDCQNGAQCIVRINEPICQCLPGYQGEKCEKLVSVNFINKESYLQIPSAKVRPQTNITLQIATDEDSGILLYKGDKDHIAVELYRGRVRASYDTGSHPASAIYSVETINDGNFHIVELLALDQSLSLSVDGGNPKIITNLSKQSTLNFDSPLYVGGMPGKSNVASLRQAPGQNGTSFHGCIRNLYINSELQDFQKVPMQTGILPGCEPCHKKVCAHGTCQPSSQAGFTCECQEGWMGPLCDQRTNDPCLGNKCVHGTCLPINAFSYSCKCLEGHGGVLCDEEEDLFNPCQAIKCKHGKCRLSGLGQPYCECSSGYTGDSCDREISCRGERIRDYYQKQQGYAACQTTKKVSRLECRGGCAGGQCCGPLRSKRRKYSFECTDGSSFVDEVEKVVKCGCTRCVS
notes: Slit2, full length, put in place of Netrin 5 in the vector Ntn5.a-AP-His (Addgene); also called AP-tagged Slit2; alkaline phosphatase (AP)-tagged Slit2; source: HEK293T, transfected, in supernatant; not shown: alkaline phosphatase (human), C-terminal, kept
Kd: 19.6 nM
